Assays:
GBV-B NS5B ΔCT19 [1] = molecular target: T1, GBV-B NS5B ΔCT19 (Hepatitis GB virus B, UniProt Q69422); experiment: Scintillation proximity assay (SPA) of RdRp activity; assay type: biochemical
T1 construct: initiator methionine (N); made in house; host or cells: E. coli JM109 (DE3)
T1 sequence (Q69422 2275-2845 limits assumed): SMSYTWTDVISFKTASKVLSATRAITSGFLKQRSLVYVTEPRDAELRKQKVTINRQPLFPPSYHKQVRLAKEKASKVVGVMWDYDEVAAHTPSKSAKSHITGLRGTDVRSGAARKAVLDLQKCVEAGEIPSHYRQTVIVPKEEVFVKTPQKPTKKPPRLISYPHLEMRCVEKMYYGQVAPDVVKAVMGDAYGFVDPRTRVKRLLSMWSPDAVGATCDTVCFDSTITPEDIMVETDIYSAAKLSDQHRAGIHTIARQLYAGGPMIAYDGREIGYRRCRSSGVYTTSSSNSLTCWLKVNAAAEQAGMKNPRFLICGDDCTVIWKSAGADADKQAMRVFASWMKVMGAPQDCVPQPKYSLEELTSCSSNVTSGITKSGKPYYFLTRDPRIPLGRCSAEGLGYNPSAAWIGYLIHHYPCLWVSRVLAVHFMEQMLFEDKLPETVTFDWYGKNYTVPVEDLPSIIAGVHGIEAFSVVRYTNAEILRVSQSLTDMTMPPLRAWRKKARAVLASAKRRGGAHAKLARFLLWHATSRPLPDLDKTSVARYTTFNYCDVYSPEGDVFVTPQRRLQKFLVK
Procedure: Scintillation proximity assay (SPA). SPA was used to determine the standard activity of RdRp, and performed under standard conditions as described previously by Ferrari et al., supra. Briefly, reaction mixtures (50 μl in total volume) containing, in addition to other buffer components (20 mM HEPES, pH7.3, 7.5 mM DTT, 10 mM MnCl2, 100 mM NaCl, 50 μg/ml BSA and 2 units of RNasin), 250 ng of poly(C), 25 ng of biotinylated oligo(G)12, 5 μM GTP/ 0.1 μCi of ^3H-GTP and 175 ng of GBV-B NS5B protein were incubated in a 96-well plate at room temperature for 3 hours. The reactions were terminated by addition of 50 μl of 100 mM EDTA in phosphate-buffered saline (PBS), the products were captured by SPA beads coated with streptavidin and ^3H-GMP incorporation was determined with a scintillation counter.

GBV-B NS5B ΔCT19 [2] = molecular target: T1, GBV-B NS5B ΔCT19; experiment: Gel-based RdRp assay; assay type: biochemical; settings: ZnCl2 0, 1, 2.5, 5, 7.5, 10 μM
Procedure: Gel-based RdRp assay. Standard activity assays were performed in a reaction mixture (40 μl) containing 20 mM HEPES, pH 7.3, 15 mM MnCl2, 100 μM of ATP, UTP, GTP and 10 μCi of α-^33P-CTP, 300 ng of purified protein and 0.2 μg of a 36-base synthetic RNA (5′-GGA25UAUAUAUAU-3′). The sequence of the RNA was designed to form a stem-loop at the 3′-end to support the “copy-back” priming of RNA synthesis. The polymerization reaction was performed at 30° C. for 1 hr and terminated by phenol and chloroform extraction. RNA was ethanol precipitated and separated on a 15% TBE/6 M urea polyacrylamide gel (Novex). The gel was fixed, vacuum dried and subjected to autoradiography.

[3] = system: GBV-B NS4A 18-mer peptide (amino acids 29-46)
[4] = system: GBV-B NS4A peptide (4A31; aa 16-46 of GBV-B NS4A)
[5] = system: GBV-B NS4A 15-mer peptide (amino acids 22-36)
[6] = system: HCV NS4A cofactor peptide (4A13; aa 22-34 of HCV NS4A)
[7] = system: GBV-B NS4A cofactor peptide (4A17; amino acids 20-36 of GBV-B NS4A)
GBV-B NS5B ΔCT19 [8] = molecular target: T1, GBV-B NS5B ΔCT19; experiment: RNA-binding (gel-shift) competition assay; settings: for affinity order of binding to NS5B ΔCT19: competition with nonradiolabeled RNA homopolymers
Procedure: RNA-binding assay. The RNA binding assay was performed in a 10 μl reaction mixture containing 20 mM HEPES, pH 7.3, 7.5 mM MnCl2, 7.5 mM DTT, 5% glycerol, 125 mM NaCl, 100 μg per ml of BSA, 1 unit of RNase inhibitor, 100 ng of GBV-B NS5B protein, 1 pmol of an end-labeled RNA probe with the sequence of 5′-U28GGACUU CGGUCC-3′, and increasing amounts of homopolymeric RNA as depicted indicated in FIG. 12. The probe bound most tightly to the GBV-B NS5B among all the RNA probes of similar length tested (data not shown). Following incubation at room temperature for 30 min, the reaction mixture was separated on a nondenaturing 6% polyacrylamide gel at 180 volts for 1.25 hrs in 0.5×TBE buffer. The gel was dried and subjected to autoradiography.

For OCC(O)CO [Glycerol], the “concentration at which RdRp activity is inhibited” value (GBV-B NS5B ΔCT19 [1]; poly C template, oligoG12 primer) was “higher than 3%”.

With [Cl-].[Cl-].[Mg+2] [Mg^2+, MgCl2] the “ability of divalent cation to support RdRp activity” value (GBV-B NS5B ΔCT19 [1]; concentrations as high as 20 mM) was “could not replace Mn^2+ to support the activity”.

In the case of [Cl][Mn][Cl] [Mn^2+, MnCl2], the “optimal concentration of divalent cation for polymerase activity” value (GBV-B NS5B ΔCT19 [1]; titration 0-20 mM) is reported as 15 mM.

[Cl-].[Cl-].[Zn+2] [Zn^2+, ZnCl2] was tested, and the “inhibition of GBV-B RdRp activity” value (GBV-B NS5B ΔCT19 [2]) was “inhibits GBV-B RdRp activity at low-micromolar (μM) concentrations”.

“full-length GBV-B NS3 protease (GBV-B NS3-His)” was tested, and the “cofactor activity: enhancement of cleavage of GBV-B NS4A/4B substrate by 1.5 uM GBV-B NS3 (phosphorimaging)” value (“cofactor activity: enhancement” below) [3] was “did not possess the cofactor activity as it failed to enhance the protease activity”, the “trans-cleavage of GBV-B NS4A/4B substrate by 2 uM GBV-B NS3 with or without 20 uM peptide (SDS-PAGE)” value [4] was “cleavage at the NS4A/NS4B junction by wild type GBV-B NS3 occurs only in the presence of the GBV-B NS4A cofactor” and the “trans-cleavage of GBV-B NS5A/5B substrate by 2 uM GBV-B NS3 with or without 20 uM peptide (SDS-PAGE)” value [4] was “processing at the NS5A/NS5B junction is also NS4A cofactor-dependent”. For the same compound, the “trans-cleavage of in vitro translated HCV NS4A/4B, NS4B/5A and NS5A/5B substrates by GBV-B NS3 with or without 20 uM peptide (SDS-PAGE)” value [4] was “substrate processing was greatly improved by the NS4A peptide”, the “cofactor activity: enhancement” value [5] was “a 15-mer peptide (amino acids 22-36), which is the minimum region that efficiently activates protease activity for trans-cleavage” and the “trans-cleavage of HCV (250 nM protease) and GBV-B (2 uM protease) NS4A/4B substrates by GBV-B NS3 with 100 uM peptide (SDS-PAGE)” value [6] was “protease activation is dependent upon an NS4A cofactor from the same virus (GBV-B NS3 not activated by the HCV NS4A peptide)”. For the same compound, the “cofactor activity: enhancement” value [7] was “a 17-mer peptide derived from amino acid 20 to 36 of NS4A retained the cofactor activity” and the “trans-cleavage of HCV (250 nM protease) and GBV-B (2 uM protease) NS4A/4B substrates by GBV-B NS3 with 100 uM peptide (SDS-PAGE)” value [7] was “protease activation is dependent upon an NS4A cofactor from the same virus (GBV-B NS3 activated by the GBV-B NS4A peptide)”.

For “full-length HCV NS3 protease (HCV His-NS3)”, the “trans-cleavage of GBV-B NS4A/4B substrate by HCV NS3 with or without 100 uM peptide (SDS-PAGE)” value [6] was “dose-dependent and NS4A cofactor-enhanced cleavage activity at the NS4A/4B junction site”, the “trans-cleavage of GBV-B NS4A/4B substrate by full-length HCV NS3 with HCV NS4A peptide (SDS-PAGE)” value [6] was “also generated the cleavage products in an HCV NS4A cofactor-dependent manner” and the “trans-cleavage of GBV-B NS5A/5B substrate by HCV NS3 with or without 100 uM peptide (SDS-PAGE)” value [6] was “Cleavage of the GBV-B NS5A/5B site was inefficient and required 10 µM of HCV NS3 protease and was cofactor dependent”. For the same compound, the “trans-cleavage of HCV and GBV-B NS4A/4B substrates by 50 nM HCV NS3 with 100 uM peptide (SDS-PAGE)” value [6] was “protease activation is dependent upon an NS4A cofactor from the same virus (HCV NS3 activated by the HCV NS4A peptide)” and the “trans-cleavage of HCV and GBV-B NS4A/4B substrates by 50 nM HCV NS3 with 100 uM peptide (SDS-PAGE)” value [7] was “protease activation is dependent upon an NS4A cofactor from the same virus (HCV NS3 not activated by the GBV-B NS4A peptide)”.

For poly (A), the “affinity order of binding to NS5B ΔCT19” value (GBV-B NS5B ΔCT19 [8]) was “poly (U)>poly (G)>poly (A)>poly (C)”.

For poly (C), the “affinity order of binding to NS5B ΔCT19” value (GBV-B NS5B ΔCT19 [8]) was “poly (U)>poly (G)>poly (A)>poly (C)”.

poly (U) was tested, and the “competition for binding of NS5B ΔCT19 to labeled RNA probe” value (GBV-B NS5B ΔCT19 [8]; 0.1, 1, 10, 100 x probe) was “competes most efficiently for binding” and the “affinity order of binding to NS5B ΔCT19” value (GBV-B NS5B ΔCT19 [8]) was “poly (U)>poly (G)>poly (A)>poly (C)”.
